Molecular target: fluorescently-labeled taxol-stabilized microtubules

B1: purified recombinant full-length Kif19 (protein)
chain: MKDSGDSKDQQLMVALRVRPISVAELEEGATLIAHKVDEQMVVLMDPMEDPDDILRAHRSREKSYLFDVAFDFTATQEMVYQATTKSLIEGVISGYNATVFAYGPTGCGKTYTMLGTDQEPGIYVQTLNDLFRAIEETSNDMEYEVSMSYLEIYNEMIRDLLNPSLGYLELREDSKGVIQVAGITEVSTINAKEIMQLLMKGNRQRTQEPTAANQTSSRSHAVLQVTVRQRSRVKNILQEVRQGRLFMIDLAGSERASQTQNRGQRMKEGAHINRSLLALGNCINALSDKGSNKYINYRDSKLTRLLKDSLGGNSRTVMIAHISPASSAFEESRNTLTYAGRAKNIKTRVKQNLLNVSYHIAQYTSIIADLRGEIQRLKRKIDEQTGRGQARGRQDRGDIRHIQAEVQLHSGQGEKAGMGQLREQLASAFQEQMDVRRRLLELENRAMEVQIDTSRHLLTIAGWKHEKSRRALKWREEQRKECYAKDDSEKDSDTGDDQPDILEPPEVAAARESIAALVDEQKQLRKQKLALEQRCRELRARGRRLEETLPRRIGSEEQREVLSLLCRVHELEVENTEMQSHALLRDGALRHRHEAVRRLEQHRSLCDEIIQGQRQIIDDYNLAVPQRLEELYEVYLRELEEGSLEQATIMDQVASRALQDSSLPKITPAGTSLTPDSDLESVKTLSSDAQHLQNSALPPLSTESEGHHVFKAGTGAWQAKSSSVPTPPPIQLGSLVTQEAPAQDSLGSWINSSPDSSENLSEIPLSHKERKEILTGTKCIWVKAARRRSRALGTEGRHLLAPATERSSLSLHSLSEGDDARPPGPLACKRPPSPTLQHAASEDNLSSSTGEAPSRAVGHHGDGPRPWLRGQKKSLGKKREESLEAKRRKRRSRSFEVTGQGLSHPKTHLLGPHQAERISDHRMPVCRHPAPGIRHLGKVTLPLAKVKLPPSQNTGPGDSSPLAVPPNPGGGSRRATRGPRLPHGTSTHGKDGCSRHN
microtubule depolymerization in vitro (TIRF time series, 5 minutes): Kif-19 depolymerizes microtubules in vitro

From patent US9994845
